This is an account of results in publication doi:10.1101/2025.07.29.667502, “Single-Molecule FRET Reveals Two T4 Phage MR Complex Exonuclease States Regulated by the Mre11 Dimer Interface” (bioRxiv, 2025).

This test deals with T1, T4 Rad50 (wild type) (bacteriophage T4, UniProt P04522 1-560).
T1 construct: Rad50 (gp46) of bacteriophage T4; the introduction says that the T4 complex is purified without truncation of Rad50's coiled-coil; also called WT Rad50; gp46; source: E. coli BL21 (DE3), purified (nickel column)
T1 sequence (looked up): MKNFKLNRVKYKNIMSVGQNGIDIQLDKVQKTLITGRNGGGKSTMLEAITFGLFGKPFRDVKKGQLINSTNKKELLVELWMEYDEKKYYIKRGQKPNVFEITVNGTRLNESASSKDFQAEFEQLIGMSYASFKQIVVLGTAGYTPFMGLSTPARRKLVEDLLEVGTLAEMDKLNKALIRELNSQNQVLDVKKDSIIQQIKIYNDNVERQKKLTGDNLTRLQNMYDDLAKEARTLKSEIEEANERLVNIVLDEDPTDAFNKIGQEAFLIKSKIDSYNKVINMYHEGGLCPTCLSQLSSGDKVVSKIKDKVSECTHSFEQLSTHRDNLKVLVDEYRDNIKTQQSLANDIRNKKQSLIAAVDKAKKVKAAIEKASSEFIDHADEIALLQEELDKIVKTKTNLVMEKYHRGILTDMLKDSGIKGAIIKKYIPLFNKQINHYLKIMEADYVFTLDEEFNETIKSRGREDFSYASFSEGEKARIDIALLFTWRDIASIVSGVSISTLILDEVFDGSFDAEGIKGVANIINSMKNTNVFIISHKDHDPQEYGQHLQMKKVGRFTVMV
Description: negative-stain EM; WT T4-MR complex with ATPγS, in the absence of DNA. As to conditions: both partners purified.

B1: T4 Mre11 (wild type) (enzyme, bacteriophage T4, UniProt P04521 1-339, looked up)
chain: MKILNLGDWHLGVKADDEWIRGIQIDGIKQAIEYSKKNGITTWIQYGDIFDVRKAITHKTMEFAREIVQTLDDAGITLHTIVGNHDLHYKNVMHPNASTELLAKYPNVKVYDKPTTVDFDGCLIDLIPWMCEENTGEILEHIKTSSASFCVGHWELNGFYFYKGMKSHGLEPDFLKTYKEVWSGHFHTISEAANVRYIGTPWTLTAGDENDPRGFWMFDTETERTEFIPNNTTWHRRIHYPFKGKIDYKDFTNLSVRVIVTEVDKNLTKFESELEKVVHSLRVVSKIDNSVESDDSEEVEVQSLQTLMEEYINAIPDITDSDREALIQYANQLYVEATQ
notes: Mre11 (gp47) of bacteriophage T4; Used together with WT Rad50 as the WT-MR complex; also called WT Mre11; gp47; source: E. coli BL21 (DE3), purified (chitin column)
For the molecule B1, the binding result is “binds”.
